The record followed here is article PMC8093215 (Nature Communications, 2021).

Test [1] addresses T1, MBP-tagged human DNMT1 residues 351-1600, M718A/H719A/K723A/K724A/K725A/Q726A (Mut^linker) (human, UniProt P26358 351-1600, M718A | H719A | K723A | K724A | K725A | Q726A).
T1 construct: numbering on isoform 1 of 1616 amino acids; also called MBP-Mut^linker; source: E. coli BL21(DE3) RIL, purified
As to the kind of experiment: ITC.

Test [2] deals with T1, MBP-tagged human DNMT1 residues …. The test can be described thus: ITC. This is another data set of the same source.
In test [3] the target is T2, human DNMT1 BAH1 domain (residues 728-900), E819A (human, UniProt P26358 728-900, E819A).
T2 construct: numbering on isoform 1 of 1616 amino acids; also called hDNMT1_(BAH1), E819A; source: E. coli BL21(DE3) RIL, purified as the wild-type protein; not shown: His6-SUMO, N-terminal, cleaved
As to the kind of experiment: ITC; 1 mM H4K20me peptide titrated over 0.1 mM hDNMT1 BAH1 or BAH2 domain; 25 mM Tris-HCl pH 7.5, 100 mM NaCl, 2 mM DTT; 5 °C; single-site binding mode. As to conditions: both partners purified. (ITC needs no label: the signal is the heat of the interaction.)

Test [4] has as its target T3, human DNMT1 BAH1 domain (residues 728-900), E821A (human, UniProt P26358 728-900, E821A).
T3 construct: numbering on isoform 1 of 1616 amino acids; also called hDNMT1_(BAH1), E821A; source: E. coli BL21(DE3) RIL, purified as the wild-type protein; not shown: His6-SUMO, N-terminal, cleaved
Described as above. As to conditions: both partners purified.

Test [5] concerns the target T4, human DNMT1 BAH1 domain (residues 728-900), D768A (human, UniProt P26358 728-900, D768A).
T4 construct: numbering on isoform 1 of 1616 amino acids; also called hDNMT1_(BAH1), D768A; source: E. coli BL21(DE3) RIL, purified as the wild-type protein; not shown: His6-SUMO, N-terminal, cleaved
The description is as above. The following applies: both partners purified.

Test [6] concerns the target T5, bovine DNMT1 BAH1 domain (residues 725–897, residues 838–858 replaced by GAGSA) (bovine, UniProt Q24K09 725-837; Q24K09 859-897).
T5 construct: bovine DNMT1 BAH1 domain, residues 725-837; linker that replaces residues 838-858 to facilitate crystallization; bovine DNMT1 BAH1 domain, residues 859-897; the last two beta-strands were domain-swapped during crystallization; also called bDNMT1_(BAH1); source: E. coli BL21(DE3) RIL, purified (Ni, ULP1 cleavage, Q XL, Ni, SEC); not shown: His6-SUMO, N-terminal, cleaved
T5 chain: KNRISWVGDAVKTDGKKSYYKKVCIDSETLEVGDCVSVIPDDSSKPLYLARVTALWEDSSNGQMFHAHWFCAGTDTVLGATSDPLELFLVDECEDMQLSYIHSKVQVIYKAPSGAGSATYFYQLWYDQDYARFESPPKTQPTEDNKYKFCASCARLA
The test can be described thus: crystal structure; bDNMT1 BAH1 mixed with peptide 1:3; hanging drop, 13% PEG1500, 20 mM DTT, 200 mM L-proline, 4 °C; HEPES pH 7.5 (K20me3) or MES pH 6.5 (K20me2). The following applies: both partners purified.

The target of test [7] is T6, human DNMT1 BAH1 domain, wild type, His6-MBP construct used for the autoinhibitory linker binding (human, UniProt P26358 728-900).
T6 construct: numbering on isoform 1 of 1616 amino acids; also called hDNMT1_(BAH1), WT; source: E. coli BL21(DE3) RIL, purified (Ni, ion exchange, TEV cleavage, Ni, SEC)
As to the kind of experiment: ITC; hDNMT1 BAH1 domain (WT, W796A or Mut^YW) with the autoinhibitory linker peptide hDNMT1(714-727); 5 °C; single-site binding mode. As to conditions: both partners purified.

The target of test [8] is T7, human ORC1 BAH domain (residues 1-185) (human, UniProt Q13415 1-185).
T7 construct: human origin recognition complex subunit 1 (ORC1), BAH domain, residues 1-185
T7 sequence (looked up): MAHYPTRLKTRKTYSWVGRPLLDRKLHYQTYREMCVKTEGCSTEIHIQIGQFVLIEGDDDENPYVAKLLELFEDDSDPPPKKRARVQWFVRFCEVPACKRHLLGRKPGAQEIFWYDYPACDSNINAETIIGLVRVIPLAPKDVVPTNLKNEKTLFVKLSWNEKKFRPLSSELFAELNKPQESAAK
The test can be described thus: ITC; 0.45 mM H4K20me2 peptide titrated over 64 µM ORC1 BAH domain; 20 mM Tris-HCl pH 7.5, 100 mM NaCl, 1 mM DTT; 5 °C; single-site binding mode. The following applies: both partners purified.

Test [9] concerns the target T8, hDNMT1 BAH1 domain from the His6-MBP vector (human, UniProt P26358 728-900).
T8 construct: numbering on isoform 1 of DNMT1 with 1616 amino acids; also called WT; source: E. coli BL21(DE3) RIL, purified (Ni, ion exchange, TEV cleavage, Ni, SEC); not shown: His6-MBP, N-terminal, cleaved
As to the kind of experiment: ITC; hDNMT1 BAH1 (WT, W796A or Mut^YW) with the autoinhibitory linker peptide hDNMT1(714-727); 5 °C; single-site fit. As to conditions: both partners purified.

Where two headings read alike, the source gives them in different places. No end group written: not given here. trimethyl = trimethyl-lysine; dimethyl = dimethyl-lysine

T3 sequence (P26358 728-900 E821A): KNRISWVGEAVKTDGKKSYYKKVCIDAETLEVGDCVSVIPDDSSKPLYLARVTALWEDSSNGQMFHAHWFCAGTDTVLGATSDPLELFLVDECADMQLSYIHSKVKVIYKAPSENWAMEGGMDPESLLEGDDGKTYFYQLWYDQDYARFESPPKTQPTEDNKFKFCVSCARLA
T4 sequence (P26358 728-900 D768A): as the sequence (P26358 728-900 E821A) above, with D41A, A94E counted along it
T1 sequence (P26358 351-1600 M718A/H719A/K723A/K724A/K725A/Q726A): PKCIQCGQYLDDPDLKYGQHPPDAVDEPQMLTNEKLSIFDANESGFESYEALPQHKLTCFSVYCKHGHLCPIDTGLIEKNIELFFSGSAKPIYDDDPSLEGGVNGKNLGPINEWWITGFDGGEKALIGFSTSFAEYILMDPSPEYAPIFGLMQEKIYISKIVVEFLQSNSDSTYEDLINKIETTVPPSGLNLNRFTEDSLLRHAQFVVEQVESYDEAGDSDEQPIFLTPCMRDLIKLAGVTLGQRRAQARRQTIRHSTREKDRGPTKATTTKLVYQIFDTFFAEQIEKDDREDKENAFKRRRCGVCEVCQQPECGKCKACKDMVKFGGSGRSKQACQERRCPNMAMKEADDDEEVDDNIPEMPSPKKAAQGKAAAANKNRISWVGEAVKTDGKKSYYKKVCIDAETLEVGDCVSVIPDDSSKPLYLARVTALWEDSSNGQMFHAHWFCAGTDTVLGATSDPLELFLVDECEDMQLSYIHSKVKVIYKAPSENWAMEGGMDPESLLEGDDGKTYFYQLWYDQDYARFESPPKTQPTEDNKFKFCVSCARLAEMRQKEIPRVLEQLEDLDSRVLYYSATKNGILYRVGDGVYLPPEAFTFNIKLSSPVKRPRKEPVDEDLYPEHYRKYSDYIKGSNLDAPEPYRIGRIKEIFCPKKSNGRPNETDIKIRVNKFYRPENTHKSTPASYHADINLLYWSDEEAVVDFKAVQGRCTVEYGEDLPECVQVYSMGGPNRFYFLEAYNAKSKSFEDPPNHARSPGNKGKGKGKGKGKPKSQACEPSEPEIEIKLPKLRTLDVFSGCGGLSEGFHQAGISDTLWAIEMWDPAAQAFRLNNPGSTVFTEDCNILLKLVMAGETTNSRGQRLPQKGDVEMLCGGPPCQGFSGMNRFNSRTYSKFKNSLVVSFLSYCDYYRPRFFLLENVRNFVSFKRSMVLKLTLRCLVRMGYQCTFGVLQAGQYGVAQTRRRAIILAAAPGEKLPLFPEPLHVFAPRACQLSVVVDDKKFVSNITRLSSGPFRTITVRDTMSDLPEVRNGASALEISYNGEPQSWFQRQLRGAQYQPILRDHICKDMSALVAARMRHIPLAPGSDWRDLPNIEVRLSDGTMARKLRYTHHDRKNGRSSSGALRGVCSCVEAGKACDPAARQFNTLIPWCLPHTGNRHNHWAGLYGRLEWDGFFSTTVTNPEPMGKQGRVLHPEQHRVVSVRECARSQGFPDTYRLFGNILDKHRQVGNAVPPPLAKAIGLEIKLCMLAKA
T2 sequence (P26358 728-900 E819A): as the sequence (P26358 728-900 E821A) above, with E92A, A94E counted along it
T8 sequence (P26358 728-900): as the sequence (P26358 728-900 E821A) above, with A94E counted along it
T6 sequence (P26358 728-900): as the sequence (P26358 728-900 E821A) above, with A94E counted along it

B1: H4(14-25)K20me3 peptide (peptide)
peptide: GAKRHRKVLRDNY
modifications: trimethyl-lysine at K20
notes: histone H4, residues 14-25; additional C-terminal tyrosine for spectroscopic quantification; also called H4K20me3 peptide; source: synthetic peptide (LifeTein)
One may read the Kd as the concentration at which binding is half-saturated. Usually stoichiometry N stands for a count of units in the complex or per binding partner. For the molecule B1, the Kd came out at 131 µM in test [1]; 122 µM in test [2]; 9.4 µM in [3]; 91.7 µM in test [4]; 11.5 µM in test [5]. In addition, the “stoichiometry N” value in [2] is 1.45; in [3], 0.73; in test [4], 0.88; in [5], 0.82.

B2: H4(14–25)K20me3 peptide (peptide)
peptide: GAKRHRK(trimethyl)VLRDNY
notes: as for B1
In the case of B2, the binding result in test [6] is “binds”.

B3: hDNMT1(714-727) autoinhibitory linker peptide (peptide)
peptide: SPKKMHQGKKKKQNY
notes: numbering on isoform 1 of 1616 amino acids; additional C-terminal tyrosine for spectroscopic quantification; source: synthetic peptide (LifeTein)
For the molecule B3, the “stoichiometry N” value in [7] amounted to 1.

B4: H4(14-25)K20me2 peptide (peptide)
peptide: GAKRHRK(dimethyl)VLRDNY
notes: histone H4, residues 14-25; additional C-terminal tyrosine for spectroscopic quantification; source: synthetic peptide (LifeTein)
In the case of B4, the Kd came out at 8.7 µM in [8], 12.3 µM in test [3], 35.4 µM in [4] and 9.3 µM in test [5]. For the same molecule, the “stoichiometry N” value in test [8] is 0.75; in test [3] it was 0.87; in [4] it was 0.83; in test [5] it was 0.92.

B5: H4(14–25)K20me2 peptide (peptide)
peptide: GAKRHRK(dimethyl)VLRDNY
notes: histone H4, residues 14-25; additional C-terminal tyrosine for spectroscopic quantification; also called H4K20me2 peptide; source: synthetic peptide (LifeTein)
Turning to B5, the binding result in [6] is “binds”.

B6: autoinhibitory linker peptide hDNMT1(714–727) (peptide)
peptide: SPKKMHQGKKKKQNY
notes: numbering on isoform 1 of DNMT1 with 1616 amino acids; additional C-terminal tyrosine for spectroscopic quantification; source: synthetic peptide (LifeTein)
Molecule B6 displayed a Kd in [9] of around 70 µM.
